As usually defined, the Kd is a measure of binding affinity in units of concentration. One may read the IC50 as the midpoint of a concentration-inhibition curve. Lower therefore signals greater potency in that assay.

Where only a bound is given, the exact number is not on record here.

One assay has as its target HLA-A*11:01. In words: IEDB peptide-MHC binding, purified MHC/direct/fluorescence; filed as Kd, often an IC50 or EC50 that approximates it; ≥ and ≤ were set here for values at or beyond the usual limits of such assays.
Assay [1] addresses HLA-B*07:02. The description is as above.
The target of the next assay is HLA-B*46:01. The assay is described as above.
For a further assay, the target named is HLA-B*40:01. The assay is described as above.
The target of another assay is HLA-B*44:02. Described as above.
Assay [2] deals with HLA-A*03:01. The assay is described as above.
Assay [3] deals with HLA-B*15:01. Described as above.
The target in assay [4] is HLA-A*02:01. The assay is described as above.
The next assay addresses HLA-A*31:01. Described as above.
In another assay the target is HLA-A*01:01. Described as above.
The next assay concerns the target HLA-B*08:01. Described as above.
Assay [5] deals with HLA-A*24:02. Described as above.
Another assay addresses HLA-B*27:05. The description is as above.
The next assay concerns the target HLA-A*69:01. The assay is described as above.
In a further assay the target is HLA-B*58:01. The description is as above.
Another assay concerns the target HLA-B*18:01. The description is as above.
Assay [6] deals with HLA-B*07:02. In words: IEDB peptide-MHC binding, purified MHC/competitive/fluorescence; ≥ and ≤ were set here for values at or beyond the usual limits of such assays.
The target of assay [7] is HLA-A*02:01. The assay is described as above. The following applies: source organism: Zaire ebolavirus.
Assay [8] addresses HLA-A*24:02. Described as above. The following applies: source organism: Zaire ebolavirus.
A further assay addresses HLA-A*26:01. In words: IEDB peptide-MHC binding, purified MHC/direct/fluorescence; filed as Kd, often an IC50 or EC50 that approximates it; ≥ and ≤ were set here for values at or beyond the usual limits of such assays.
For another assay, the target named is HLA-B*15:09. The description is as above.
A further assay has as its target HLA-B*39:01. The description is as above. The note with it: source organism: Mammarenavirus lassaense.
Assay [9] concerns the target HLA-A*29:02. The description is as above. The note with it: source organism: Mammarenavirus lassaense.
The next assay addresses HLA-B*48:01. The description is as above. The following applies: source organism: Mammarenavirus lassaense.
For another assay, the target named is HLA-B*57:01. Described as above. The following applies: source organism: Mammarenavirus lassaense.
Assay [10] concerns the target HLA-A*29:02. The assay is described as follows: IEDB peptide-MHC binding, purified MHC/competitive/fluorescence; filed as Kd, often an IC50 or EC50 that approximates it; ≥ and ≤ were set here for values at or beyond the usual limits of such assays. The following applies: source organism: Campylobacter jejuni subsp. jejuni NCTC 11168 = ATCC 700819.
Assay [11] addresses HLA-A*03:01. In words: IEDB peptide-MHC binding, purified MHC/competitive/fluorescence; ≥ and ≤ were set here for values at or beyond the usual limits of such assays. The note with it: source organism: Zaire ebolavirus.
For assay [12], the target named is HLA-B*15:01. Described as above. The following applies: source organism: Zaire ebolavirus.
Where [13] appears, read: source organism: Influenza A virus (A/swine/Korea/S190/2004(H9N2)).
Where [14] appears, read: source organism: Influenza A virus (A/Puerto Rico/8/34/Mount Sinai(H1N1)).
Where [15] appears, read: source organism: Zaire ebolavirus.
[16] abbreviates: source organism: Influenza A virus (A/England/627/01(H1N2)).
The mark [17] stands for this setting: source organism: Influenza A virus (A/Viet Nam/HN/2004(H5N1)).
The mark [18] stands for this setting: source organism: Influenza A virus (A/Hong Kong/507/97(H5N1)).
The mark [19] stands for this setting: source organism: Influenza A virus (A/Taiwan/2/2006(H1N1)).
[20] abbreviates: source organism: Escherichia coli O157:H7.
The mark [21] stands for this setting: source organism: Mammarenavirus lassaense.

Take IPKRNRSIL: the Kd in the assay with HLA-A*11:01 (setting [13]) was not below 20 µM; with HLA-B*07:02 [1] (setting [14]) it was 0.015 µM; in the assay with HLA-B*46:01 (setting [13]), not below 20 µM; in the assay with HLA-B*40:01 (setting [13]) it was not below 20 µM; in the assay with HLA-B*44:02 (setting [13]), not below 20 µM; with HLA-A*03:01 [2] (setting [13]) it was not below 20 µM. The Kd is not below 20 µM with HLA-B*15:01 [3] (setting [13]); not below 20 µM in the assay with HLA-A*02:01 [4] (setting [13]); not below 20 µM with HLA-A*31:01 (setting [13]); not below 20 µM with HLA-A*01:01 (setting [13]); 0.268 µM with HLA-B*08:01 (setting [14]); not below 20 µM in the assay with HLA-A*24:02 [5] (setting [13]). The Kd with HLA-B*27:05 (setting [13]), with HLA-A*69:01 (setting [13]), with HLA-B*58:01 (setting [13]) and with HLA-B*18:01 (setting [13]) was not below 20 µM each time.
Consider VATAHGSTL, for which the figures for the IC50 in the assay with HLA-B*07:02 [6] (setting [15]), with HLA-A*02:01 [7] and in the assay with HLA-A*24:02 [8] were not below 70.5 µM, not below 136 µM and 12.7 µM, respectively.
KMARLGKGY: the Kd with HLA-B*07:02 [1] (setting [16]) was not below 20 µM; with HLA-B*46:01 (setting [16]) it was not below 20 µM; in the assay with HLA-B*40:01 (setting [16]), not below 20 µM; with HLA-B*44:02 (setting [16]) it was not below 20 µM; with HLA-A*03:01 [2] (setting [14]) it was 0.252 µM; with HLA-B*15:01 [3] (setting [14]) it was 0.178 µM. For the same sequence, the Kd in the assay with HLA-A*02:01 [4] (setting [16]) is not below 20 µM; in the assay with HLA-A*01:01 (setting [16]) it was not below 20 µM; with HLA-B*08:01 (setting [16]), not below 20 µM; in the assay with HLA-A*24:02 [5] (setting [16]), not below 20 µM; in the assay with HLA-B*27:05 (setting [14]), 0.379 µM; with HLA-A*69:01 (setting [16]), not below 20 µM. Also, in the assay with HLA-B*58:01 (setting [16]), the Kd was not below 20 µM.
Turning to IWARTYFFK, in the assay with HLA-A*24:02 [5] (source organism: Salmonella enterica subsp. enterica serovar Choleraesuis str. SC-B67), the Kd turned out to be 0.296 µM.
In the case of FRNQVKIRR, the Kd in the assay with HLA-A*11:01 (setting [17]), with HLA-B*07:02 [1] (setting [17]), with HLA-B*46:01 (setting [17]), with HLA-B*40:01 (setting [17]), with HLA-B*44:02 (setting [17]) and in the assay with HLA-A*03:01 [2] (setting [17]) was not below 20 µM each time. For the same sequence, the Kd with HLA-B*15:01 [3] (setting [17]) was not below 20 µM; with HLA-A*02:01 [4] (setting [17]), not below 20 µM; in the assay with HLA-A*01:01 (setting [17]) it was not below 20 µM; in the assay with HLA-B*08:01 (setting [17]) it was not below 20 µM; in the assay with HLA-A*24:02 [5] (setting [17]), not below 20 µM; with HLA-B*27:05 (setting [14]), 0.079 µM. For the same sequence, the dissociation constant Kd in the assay with HLA-A*69:01 (setting [17]), with HLA-B*58:01 (setting [17]), in the assay with HLA-B*18:01 (setting [17]) and with HLA-A*26:01 (source organism: Influenza A virus(A/swine/Shandong/fNY/2003(H9N2))) was not below 20 µM each time.
For GTSKIKMKW, the Kd in the assay with HLA-A*11:01 (setting [18]), with HLA-B*07:02 [1] (setting [18]), with HLA-B*46:01 (setting [18]), with HLA-B*40:01 (setting [18]), with HLA-B*44:02 (setting [18]) and with HLA-A*03:01 [2] (setting [18]) was not below 20 µM each time. Moreover, the Kd with HLA-B*15:01 [3] (setting [18]), in the assay with HLA-A*02:01 [4] (setting [18]), with HLA-A*31:01 (setting [18]), in the assay with HLA-A*01:01 (setting [18]), in the assay with HLA-B*08:01 (setting [18]) and with HLA-A*24:02 [5] (setting [18]) was not below 20 µM throughout. Also, the Kd with HLA-B*15:09 (setting [19]) is not below 20 µM; with HLA-B*27:05 (setting [18]), not below 20 µM; in the assay with HLA-A*69:01 (setting [18]), not below 20 µM; with HLA-B*58:01 (setting [18]), 0.18 µM; with HLA-A*26:01 (setting [19]), not below 20 µM.
Consider RTRREAIVN, for which the IC50 with HLA-B*07:02 [6] (setting [15]) was not below 92.6 µM; with HLA-A*02:01 [7] it was not below 119 µM.
As for LLKLWIDKV, the Kd in the assay with HLA-A*11:01 (setting [20]), with HLA-B*07:02 [1] (setting [20]), with HLA-B*40:01 (setting [20]), with HLA-B*44:02 (setting [20]), in the assay with HLA-A*03:01 [2] (setting [20]) and with HLA-B*15:01 [3] (setting [20]) was not below 20 µM in each case. For the same sequence, the equilibrium dissociation constant (Kd) with HLA-A*02:01 [4] (setting [20]) is 0.0367 µM; with HLA-A*31:01 (setting [20]), not below 20 µM; with HLA-A*01:01 (setting [20]), not below 20 µM; with HLA-A*24:02 [5] (setting [20]), not below 20 µM; with HLA-B*27:05 (setting [20]) it was not below 20 µM; with HLA-B*58:01 (setting [20]), not below 20 µM. The sequence further returned a Kd with HLA-B*18:01 (setting [20]) not below 20 µM.
Regarding RPSSSQIPS, the IC50 with HLA-B*07:02 [6] (source organism: Sudan ebolavirus) came out at 10.9 µM.
In the case of SHGIDVTDL, the Kd in the assay with HLA-A*11:01 (setting [21]), with HLA-B*07:02 [1] (setting [21]), in the assay with HLA-B*39:01, with HLA-B*46:01 (setting [21]), in the assay with HLA-B*40:01 (setting [21]) and with HLA-B*44:02 (setting [21]) was not below 20 µM in each case. Besides, the Kd in the assay with HLA-A*03:01 [2] (setting [21]), in the assay with HLA-B*15:01 [3] (setting [21]), with HLA-A*02:01 [4] (setting [21]), in the assay with HLA-A*31:01 (setting [21]), in the assay with HLA-A*01:01 (setting [21]) and with HLA-A*29:02 [9] was not below 20 µM throughout. Moreover, the Kd with HLA-B*15:09 (setting [21]), with HLA-B*48:01, with HLA-B*27:05 (setting [21]), in the assay with HLA-B*57:01, with HLA-A*69:01 (setting [21]) and with HLA-B*58:01 (setting [21]) was not below 20 µM throughout. The same sequence had a Kd with HLA-B*18:01 (setting [21]) not below 20 µM.
On to LYAYWYHLY, for which, in the assay with HLA-A*29:02 [10], the Kd stood at 0.0008 µM.
Take RVIPVYQVN: the half-maximal inhibitory concentration (IC50) was not below 151 µM with HLA-B*07:02 [6] (setting [15]); not below 277 µM in the assay with HLA-A*03:01 [11]; not below 72.8 µM with HLA-B*15:01 [12]; not below 87.2 µM in the assay with HLA-A*02:01 [7]; 51.6 µM in the assay with HLA-A*24:02 [8].
In the case of KIRSEELSF, the IC50 with HLA-B*07:02 [6] (setting [15]) was not below 173 µM; with HLA-B*15:01 [12], not below 91.7 µM; in the assay with HLA-A*24:02 [8], not below 106 µM.
